Results as given in patent US20230183352A1 (published 2023).
Positions count from the first letter of the chain named.

How the values were obtained:
[1] = biological target: T1, Claudin 18.2 (CLDN18.2), expressed on CHOS-CLDN 18.2 / HEK293-CLDN 18.2 / HCC827-CLDN 18.2 cells (human, UniProt P56856-2 1-261); test: FACS, CHOS-CLDN18.2 cells, 0 µg/ml (background)
T1 construct: whole, on cells; The species is not repeated for the CHOS-CLDN 18.2 cells; also called claudin-18A2

[2] = biological target: T1, Claudin 18.2 (CLDN18.2), expressed on …; test: FACS, CHOS-CLDN18.2 cells, 20 µg/ml
[3] = biological target: T1, Claudin 18.2 (CLDN18.2), expressed on …; test: FACS, CHOS-CLDN18.2 cells, 0.020 µg/ml
[4] = biological target: T1, Claudin 18.2 (CLDN18.2), expressed on …; test: FACS, CHOS-CLDN18.2 cells, 0.078 µg/ml
[5] = biological target: T1, Claudin 18.2 (CLDN18.2), expressed on …; test: FACS, CHOS-CLDN18.2 cells
[6] = biological target: T1, Claudin 18.2 (CLDN18.2), expressed on …; test: FACS, CHOS-CLDN18.2 cells, 0.313 µg/ml
[7] = biological target: T1, Claudin 18.2 (CLDN18.2), expressed on …; test: cell-based or functional assay
[8] = biological target: T1, Claudin 18.2 (CLDN18.2), expressed on …; test: FACS, MFI on CHOS-CLDN18.2 over MFI on CHOS-CLDN18.1, 10 µg/ml
[9] = biological target: T1, Claudin 18.2 (CLDN18.2), expressed on …; test: FACS, CHOS-CLDN18.2 cells, 10 µg/ml
[10] = biological target: T1, Claudin 18.2 (CLDN18.2), expressed on …; test: FACS, CHOS-CLDN18.2 cells, 5 µg/ml
[11] = biological target: T1, Claudin 18.2 (CLDN18.2), expressed on …; test: FACS, CHOS-CLDN18.2 cells, 1.250 µg/ml
[12] = biological target: T1, Claudin 18.2 (CLDN18.2), expressed on …; test: FACS, CHOS-CLDN18.2 cells, 0.005 µg/ml
[13] = biological target: T2, PD-L1 Protein, Cynomolgus, Recombinant (His Tag) (cynomolgus, UniProt G7PSE7 19-239); test: SPR, Biacore T200, antibody captured
T2 construct: Bought protein; also called QPP10.1; cynoPD-L1; not shown: His tag
T2 sequence (G7PSE7 entry or part of it): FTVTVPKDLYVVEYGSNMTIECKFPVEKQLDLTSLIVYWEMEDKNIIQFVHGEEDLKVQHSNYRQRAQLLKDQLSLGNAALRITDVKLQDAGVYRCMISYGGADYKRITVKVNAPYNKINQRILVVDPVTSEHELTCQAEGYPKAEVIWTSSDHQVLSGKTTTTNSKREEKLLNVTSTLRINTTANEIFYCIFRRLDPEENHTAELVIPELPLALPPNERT

[14] = biological target: T3, Biotin QP004.3 (biotin-PDL1-FC) (human, UniProt Q9NZQ7 19-238, limits assumed, biotinylated (sites not given)); test: PD-L1/PD-1 blocking ELISA, PD1-FC coated; row labelled EC50; competitor PD1-FC
T3 sequence (Q9NZQ7 19-238 limits assumed): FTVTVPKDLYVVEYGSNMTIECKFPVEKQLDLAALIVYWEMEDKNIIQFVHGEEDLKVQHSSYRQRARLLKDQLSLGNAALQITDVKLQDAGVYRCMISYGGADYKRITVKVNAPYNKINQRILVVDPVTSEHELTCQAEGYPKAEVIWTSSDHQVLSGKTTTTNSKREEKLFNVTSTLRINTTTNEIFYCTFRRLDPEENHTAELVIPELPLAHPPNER

[15] = biological target: T3, Biotin QP004.3 (biotin-PDL1-FC); test: PD-L1 binding ELISA, antibody coated, biotin-PDL1-FC titrated
[16] = biological target: T4, PD-L1 Protein, Cynomolgus, Recombinant (His Tag) (cynomolgus); test: SPR Biacore T200, antibody captured, PD-L1 His as analyte, 1:1 binding
T4 construct: Bought protein; also called QPP10.1; SinoBiologic 90251-C08H

[17] = biological target: T5, PD-L1 Protein, Human, Recombinant (His Tag) (human, UniProt Q9NZQ7 19-239); test: as above
T5 construct: Bought protein; also called QPP09.1; SinoBiologic 10084-H08H
T5 sequence (Q9NZQ7 19-239 limits assumed): as the sequence (G7PSE7 entry or part of it) above, with T33A, S34A, N62S, Q68R, R82Q, L173F, A185T, I192T, L215H counted along it

B1: QP14371433 (antibody, human IgG1, kappa, V domains shown)
VH: EVQLVESGGGLVKPGGSLRLSCAASGFTFSNYAMSWVRQAPGKGLEWVASIISGGRTYYLDSEKGRFTISRDNAKNSLYLQMNSLRAEDTAVYYCTRIYYGNSFDYWGQGTLVTVSS
VL: DIVMTQSPDSLAVSLGERATINCKSSQSLLNSGNQKNYLTWYQQKPGQPPKLLIYWASTRESGVPDRFSGSGSGTDFTLTISSLQAEDVAVYYCQNDYSYPFTFGQGTKLEIKR
notes: Humanized from QP190191; also called QP14331437
With B1 the FACS reading [1] was 754, the FACS reading [2] was 115000 and the FACS reading [3] was 10800. It also gave an FACS reading [4] of 17700, an EC50 [5] of 0.36 µg/mL and a max [5] of 174000. The FACS reading [6] was 65900, the “EC50 of killing, ADCC (PBMC, HEK293-CLDN18.2 cells)” value [7] was 0.0162 µg/mL and the “Killing percentage, ADCC (PBMC, HEK293-CLDN18.2 cells), 0 µg/ml” value [7] was 9.02%. The “Killing percentage, ADCC (PBMC, HEK293-CLDN18.2 cells), 0.0001024 µg/ml” value [7] was 8.31%, the “Killing percentage, ADCC (PBMC, HEK293-CLDN18.2 cells), 0.000512 µg/ml” value [7] was 10.5% and the “Killing percentage, ADCC (PBMC, HEK293-CLDN18.2 cells), 0.00256 µg/ml” value [7] was 13.3%. The “Killing percentage, ADCC (PBMC, HEK293-CLDN18.2 cells), 0.0128 µg/ml” value [7] was 31.3%, the “Killing percentage, ADCC (PBMC, HEK293-CLDN18.2 cells), 0.064 µg/ml” value [7] was 41.5% and the “Killing percentage, ADCC (PBMC, HEK293-CLDN18.2 cells), 0.32 µg/ml” value [7] was 49.6%. For the same binder, the “Killing percentage, ADCC (PBMC, HEK293-CLDN18.2 cells), 1.6 µg/ml” value [7] was 56.4%, the “Killing percentage, ADCC (PBMC, HEK293-CLDN18.2 cells), 8 µg/ml” value [7] was 53.8% and the “Killing percentage, ADCC (PBMC, HEK293-CLDN18.2 cells), 40 µg/ml” value [7] was 52.3%. For the same binder, the “CLDN18.2/CLDN18.1 (MFI ratio)” value [8] was 448, the MFI [9] was 433000 and the FACS reading [10] was 174000. It also gave an FACS reading [11] of 133000 and an FACS reading [12] of 3730.

B2: QP322 (Fc fusion)
chain: EVQLLESGGGLVQPGGSLRLSCAASGFTYGTYAMSWFRQAPGKGREGVACIDIYGRASYTDPVKGRFTISQDNSKNTLYLQMNSLKAEDTAVYYCAARDFGYCTASWVHEGFSRYWGQGTLVTVSS
notes: Humanized from QP1162; also called 1162-V3; humanized nanobody QP322; not shown: human IgG1-FC constant region fused to the C terminal of the VHH
B2: binds [13].

B3: QP325 (Fc fusion)
chain: B2 chain with R45L, A57T, K86R
notes: Humanized from QP1166; also called 1166-V3; humanized antibody QP325; not shown: human IgG1-FC constant region fused to the C terminal of the VHH
B3: binds [13].

B4: QP1162 (VHH)
VHH: B2 chain with E1Q, L5V, L11S, P14S, G44E, S74A, A87P, V92M, L121Q
notes: also called nanobody QP1162; camel nanobody QP1162
B4: binds [13].

B5: QP322 (Fc fusion)
chain: B2 chain
notes: Humanization design of QP1162; VHH at the N-terminal of FC; also called 1162-V3; QD322; not shown: human IgG1-FC constant region fused to the C terminal of the VHH
B5 showed an IC50 [14] of 5.12 nM, an EC50 [15] of 0.00753 µg/mL and a Kd [16] of 5.39 nM. The koff [16] was 0.00354 s⁻¹, the kon [16] was 657000 M⁻¹ s⁻¹ and the Kd [17] was 2.37 nM. For the same binder, the koff [17] was 0.00311 s⁻¹ and the kon [17] was 1.31e+06 M⁻¹ s⁻¹.
